# Reference: patent US20230051701A1 (Bristol-Myers Squibb, published 2023)
# Several values for one entry are separate records, joined by “and”; a condition that tells them apart may be missing. Equal entries are not always repeated.
# T1: human CD73 on cells (Calu6, NCI-H292, SK-MEL-24, human tumor cell lines, human B and T cells) (human, UniProt P21589 27-549)
# T1 construct: Endogenous protein; also called endogenous CD73; cellular CD73
# T1 sequence: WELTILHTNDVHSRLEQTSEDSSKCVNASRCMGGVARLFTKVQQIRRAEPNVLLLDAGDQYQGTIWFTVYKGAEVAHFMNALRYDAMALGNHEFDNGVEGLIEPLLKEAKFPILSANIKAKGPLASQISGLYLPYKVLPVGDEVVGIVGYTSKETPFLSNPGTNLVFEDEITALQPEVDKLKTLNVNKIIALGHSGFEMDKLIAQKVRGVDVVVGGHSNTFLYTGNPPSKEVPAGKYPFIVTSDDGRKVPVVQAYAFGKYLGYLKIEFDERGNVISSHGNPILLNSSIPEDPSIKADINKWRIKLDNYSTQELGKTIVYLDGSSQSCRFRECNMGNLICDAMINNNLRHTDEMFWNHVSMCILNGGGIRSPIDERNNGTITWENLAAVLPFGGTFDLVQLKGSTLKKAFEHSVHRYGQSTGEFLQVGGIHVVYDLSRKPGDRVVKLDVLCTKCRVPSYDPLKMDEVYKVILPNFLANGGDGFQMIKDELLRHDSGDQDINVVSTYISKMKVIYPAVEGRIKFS
# T2: rhCD73 bound to his-tag magnet beads (human, UniProt P21589 27-549, limits assumed)
# T2 sequence: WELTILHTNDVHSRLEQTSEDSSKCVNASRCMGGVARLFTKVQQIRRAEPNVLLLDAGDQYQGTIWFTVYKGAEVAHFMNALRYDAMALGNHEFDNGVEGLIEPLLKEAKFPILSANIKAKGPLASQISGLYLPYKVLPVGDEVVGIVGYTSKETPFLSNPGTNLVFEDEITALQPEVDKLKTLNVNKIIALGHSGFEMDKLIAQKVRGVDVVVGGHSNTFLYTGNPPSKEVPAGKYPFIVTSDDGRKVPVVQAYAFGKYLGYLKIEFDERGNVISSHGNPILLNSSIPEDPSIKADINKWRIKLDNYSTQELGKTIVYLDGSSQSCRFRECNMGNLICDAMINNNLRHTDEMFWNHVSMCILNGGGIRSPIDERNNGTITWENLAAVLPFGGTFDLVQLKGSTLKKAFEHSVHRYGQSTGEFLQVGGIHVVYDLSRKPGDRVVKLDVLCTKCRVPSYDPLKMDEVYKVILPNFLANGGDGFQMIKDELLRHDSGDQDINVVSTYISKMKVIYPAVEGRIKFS
# T3: rat CD73 (rat, UniProt P21588 29-551, limits assumed)
# T3 sequence (looked up): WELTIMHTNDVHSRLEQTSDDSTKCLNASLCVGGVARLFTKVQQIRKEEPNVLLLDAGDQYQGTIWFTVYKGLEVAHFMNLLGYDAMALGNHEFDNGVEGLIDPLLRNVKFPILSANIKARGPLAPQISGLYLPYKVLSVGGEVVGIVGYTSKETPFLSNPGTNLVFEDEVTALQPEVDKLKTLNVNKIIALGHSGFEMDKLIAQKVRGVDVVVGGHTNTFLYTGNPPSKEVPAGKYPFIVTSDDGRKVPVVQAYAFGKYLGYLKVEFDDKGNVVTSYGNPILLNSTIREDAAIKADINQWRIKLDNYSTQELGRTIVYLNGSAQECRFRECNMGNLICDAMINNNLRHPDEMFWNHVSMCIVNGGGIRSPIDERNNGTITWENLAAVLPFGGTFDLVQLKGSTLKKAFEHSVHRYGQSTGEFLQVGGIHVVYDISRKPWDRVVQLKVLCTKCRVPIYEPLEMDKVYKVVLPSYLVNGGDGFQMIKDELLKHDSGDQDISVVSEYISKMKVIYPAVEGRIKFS
# T4: mouse CD73 (mouse, UniProt Q61503 29-551, limits assumed)
# T4 sequence (looked up): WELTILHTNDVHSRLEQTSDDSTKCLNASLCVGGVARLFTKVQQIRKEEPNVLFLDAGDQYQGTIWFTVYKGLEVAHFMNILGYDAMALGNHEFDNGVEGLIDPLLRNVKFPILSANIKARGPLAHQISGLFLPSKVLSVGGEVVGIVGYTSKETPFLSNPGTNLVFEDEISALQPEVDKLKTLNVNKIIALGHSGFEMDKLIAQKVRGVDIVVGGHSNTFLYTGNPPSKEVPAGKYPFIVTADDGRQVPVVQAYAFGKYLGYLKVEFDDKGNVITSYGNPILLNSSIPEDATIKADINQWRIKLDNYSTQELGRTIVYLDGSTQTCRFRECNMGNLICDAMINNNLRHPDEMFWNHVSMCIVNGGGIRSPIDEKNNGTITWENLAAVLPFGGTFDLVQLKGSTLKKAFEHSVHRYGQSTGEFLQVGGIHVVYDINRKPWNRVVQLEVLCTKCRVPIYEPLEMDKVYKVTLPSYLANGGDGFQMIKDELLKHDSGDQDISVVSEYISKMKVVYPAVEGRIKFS
# B1: CD73.4-IgG2-C219S-IgG1.1f (antibody)
# heavy: QVQLVESGGGVVQPGRSLRLSCAASGFTFSNYGMHWVRQAPGKGLEWVAVILYDGSNKYYPDSVKGRFTISRDNSKNTLYLQMNSLRAEDTAVYYCARGGSSWYPDSFDIWGQGTMVTVSSASTKGPSVFPLAPCSRSTSESTAALGCLVKDYFPEPVTVSWNSGALTSGVHTFPAVLQSSGLYSLSSVVTVPSSNFGTQTYTCNVDHKPSNTKVDKTVERKSCVECPPCPAPPVAGPSVFLFPPKPKDTLMISRTPEVTCVVVDVSHEDPEVKFNWYVDGVEVHNAKTKPREEQYNSTYRVVSVLTVLHQDWLNGKEYKCKVSNKALPSSIEKTISKAKGQPREPQVYTLPPSREEMTKNQVSLTCLVKGFYPSDIAVEWESNGQPENNYKTTPPVLDSDGSFFLYSKLTVDKSRWQQGNVFSCSVMHEALHNHYTQKSLSLSPG
# light: not shown
# modifications: 94% of the N-terminal glutamine was pyro-Q; 97% of the heavy chains lacked the C-terminal lysine
# notes: also called CD73.4-IgG2CS-IgG1.1f
# What was measured:
# [1] = molecular target: T1, human CD73 on cells (Calu6, NCI-H292, …); assay: flow cytometry, human tumor cell lines
# Procedure: Titration binding curves were produced with CD73 antibodies on Calu6 (CD73 endogenous expressors; human pulmonary adenocarcinoma cell line), DMS114 (CD73 negative; human small cell lung cancer cell line), CHO-cynoCD73 (cynoCD73-transfected) and CHO-K1 (cynoCD73 negative), cells using Alexa Fluor® 647 Goat Anti-Human IgG (H+L) as a secondary antibody, Invitrogen Cat#A-21445, using the following method: 100000 cells were plated in 100 uL PBS+2% FBS per well and blocked for 20 min. Using a U-bottom 96-deep well plate, volumes of antibody and PBS+2% FBS were combined as dictated by Table 12 below.
# An 8-point serial dilution was performed by diluting a sixth of the volume (90 uL) into 450 μL PBS+2% FBS. The cell plate was spun down for 5 minutes at 1500 rpm. 100 uL of diluted antibody was added per well of the plate. 100 uL PBS+2% FBS were added to all other wells. […] The plates were spun down at 1500 rpm for 5 min and washed in 200 uL PBS +2% FBS per well. The plates were washed again, resuspended in 200 uL 2% FBS in PBS per well and the samples were run.
# [2] = molecular target: T2, rhCD73 bound to his-tag magnet beads; assay: cell-based or functional assay
# [3] = molecular target: T1, human CD73 on cells (Calu6, NCI-H292, …); assay: cell-based or functional assay
# rat CD73 = molecular target: T3, rat CD73; assay: SPR study of Example 3A; format not described
# mouse CD73 = molecular target: T4, mouse CD73; assay: SPR study of Example 3A; format not described
binder,measurement,setting,value
B1,EC50,[1],0.5 nM and 0.3 nM to 0.67 nM (2×)
same,"EC50, recombinant human CD73 enzyme inhibition assay",[2],2.9 to 3.1 nM
same,"EC50, blockade of endogenous cellular CD73 in Calu6",[3],0.31 to 0.48 nM
same,EC50 for blockade of endogenous cellular CD73 in Calu6,[3],0.31 to 0.48 nM
same,binding result,rat CD73,no binding
same,binding result,mouse CD73,no binding
